# According to US20160194394A1 (GOVERNING COUNCIL OF THE UNIVERSITY OF TORONTO, published 2016):
# Residue numbers refer to the chain shown, from its start.
# B1: F12 (Fab)
# light: DIQMTQSPSSLSASVGDRVTITCRASQSVSSAVAWYQQKPGKAPKLLIYSASSLYSGVPSRFSGSRSGTDFTLTISSLQPEDFATYYCQQAYAPFTFGQGTKVEIKRTVAAPSVFIFPPSDSQLKSGTASVVCLLNNFYPREAKVQWKVDNALQSGNSQESVTEQDSKDSTYSLSSTLTLSKADYEKHKVYACEVTHQGLSSPVTKSFNRGECGGS
# heavy: EVQLVESGGGLVQPGGSLRLSCAASGFNISYSYMHWVRQAPGKGLEWVASIYSSYSYTSYADSVKGRFTISADTSKNTAYLQMNSLRAEDTAVYYCARSSAWFGHAGFGGAMDYWGQGTLVTVSSASTKGPSVFPLAPSSKSTSGGTAALGCLVKDYFPEPVTVSWNSGALTSGVHTFPAVLQSSGLYSLSSVVTVPSSSLGTQTYICNVNHKPSNTKVDKKVEPKSC
# notes: selection round 2; also called Fzd7-R2-F12
# B2: C10 (Fab)
# light: DIQMTQSPSSLSASVGDRVTITCRASQSVSSAVAWYQQKPGKAPKLLIYSASSLYSGVPSRFSGSRSGTDFTLTISSLQPEDFATYYCQQSAWWASLFTFGQGTKVEIKRTVAAPSVFIFPPSDSQLKSGTASVVCLLNNFYPREAKVQWKVDNALQSGNSQESVTEQDSKDSTYSLSSTLTLSKADYEKHKVYACEVTHQGLSSPVTKSFNRGECGGS
# heavy: EVQLVESGGGLVQPGGSLRLSCAASGFNISSYSIHWVRQAPGKGLEWVASIYPYSSYTYYADSVKGRFTISADTSKNTAYLQMNSLRAEDTAVYYCARYSGFAMDYWGQGTLVTVSSASTKGPSVFPLAPSSKSTSGGTAALGCLVKDYFPEPVTVSWNSGALTSGVHTFPAVLQSSGLYSLSSVVTVPSSSLGTQTYICNVNHKPSNTKVDKKVEPKSC
# notes: selection round 2; also called Fzd7-R2-C10
# B3: F9 (Fab)
# light: B2 light with S91W, A92Y, W93Y, W94G, A95W, S96H, F98I
# heavy: B2 heavy with S31Y, Y32S, Y54S, S55Y, S56G, S100G, G101Y, A103G
# notes: selection round 2; also called Fzd7-R2-F9
# B4: E11 (Fab)
# light: B2 light with S91Y, A92S, W93Y, W94G, A95Y, S96A
# heavy: EVQLVESGGGLVQPGGSLRLSCAASGFNLSSYYMHWVRQAPGKGLEWVASIYPYYSYTYYADSVKGRFTISADTSKNTAYLQMNSLRAEDTAVYYCARYWSGFDYWGQGTLVTVSSASTKGPSVFPLAPSSKSTSGGTAALGCLVKDYFPEPVTVSWNSGALTSGVHTFPAVLQSSGLYSLSSVVTVPSSSLGTQTYICNVNHKPSNTKVDKKVEPKSC
# notes: selection round 2; also called Fzd7-R2-E11
# B5: B10 (Fab)
# light: DIQMTQSPSSLSASVGDRVTITCRASQSVSSAVAWYQQKPGKAPKLLIYSASSLYSGVPSRFSGSRSGTDFTLTISSLQPEDFATYYCQQGSVWLFTFGQGTKVEIKRTVAAPSVFIFPPSDSQLKSGTASVVCLLNNFYPREAKVQWKVDNALQSGNSQESVTEQDSKDSTYSLSSTLTLSKADYEKHKVYACEVTHQGLSSPVTKSFNRGECGGS
# heavy: EVQLVESGGGLVQPGGSLRLSCAASGFNISSSSMHWVRQAPGKGLEWVASISSSSSYTYYADSVKGRFTISADTSKNTAYLQMNSLRAEDTAVYYCARYGSHWSPSYSGWYYYSYALDYWGQGTLVTVSSASTKGPSVFPLAPSSKSTSGGTAALGCLVKDYFPEPVTVSWNSGALTSGVHTFPAVLQSSGLYSLSSVVTVPSSSLGTQTYICNVNHKPSNTKVDKKVEPKSC
# notes: selection round 2; not the round 3 clone B10 (f30); also called Fzd7-R2-B10
# B6: E5 (Fab)
# light: B5 light with G91A, V93W, W94Y, L95P, F96I
# heavy: EVQLVESGGGLVQPGGSLRLSCAASGFNIYSSSMHWVRQAPGKGLEWVASIYSSYGYTSYADSVKGRFTISADTSKNTAYLQMNSLRAEDTAVYYCARPGYWGYYWGAYGMDYWGQGTLVTVSSASTKGPSVFPLAPSSKSTSGGTAALGCLVKDYFPEPVTVSWNSGALTSGVHTFPAVLQSSGLYSLSSVVTVPSSSLGTQTYICNVNHKPSNTKVDKKVEPKSC
# notes: selection round 2; also called Fzd7-R2-E5
# B7: G4 (Fab)
# light: B5 light with G91A, S92Y, V93A, W94Y, F96I
# heavy: EVQLVESGGGLVQPGGSLRLSCAASGFNISYSSMHWVRQAPGKGLEWVASISSSYGYTYYADSVKGRFTISADTSKNTAYLQMNSLRAEDTAVYYCARSGGHFYYWYVAAAMDYWGQGTLVTVSSASTKGPSVFPLAPSSKSTSGGTAALGCLVKDYFPEPVTVSWNSGALTSGVHTFPAVLQSSGLYSLSSVVTVPSSSLGTQTYICNVNHKPSNTKVDKKVEPKSC
# notes: selection round 2; same four CDRs as Fzd7-R2-B2 (f22); also called Fzd7-R2-G4
# B8: E9 (Fab)
# light: DIQMTQSPSSLSASVGDRVTITCRASQSVSSAVAWYQQKPGKAPKLLIYSASSLYSGVPSRFSGSRSGTDFTLTISSLQPEDFATYYCQQSYVGGPFTFGQGTKVEIKRTVAAPSVFIFPPSDSQLKSGTASVVCLLNNFYPREAKVQWKVDNALQSGNSQESVTEQDSKDSTYSLSSTLTLSKADYEKHKVYACEVTHQGLSSPVTKSFNRGECGGS
# heavy: EVQLVESGGGLVQPGGSLRLSCAASGFNISYYSMHWVRQAPGKGLEWVASISSSYSSTYYADSVKGRFTISADTSKNTAYLQMNSLRAEDTAVYYCARGYWYVYVGWGAYYGPVGMDYWGQGTLVTVSSASTKGPSVFPLAPSSKSTSGGTAALGCLVKDYFPEPVTVSWNSGALTSGVHTFPAVLQSSGLYSLSSVVTVPSSSLGTQTYICNVNHKPSNTKVDKKVEPKSC
# notes: selection round 2; not the round 3 clone E9 (f29); also called Fzd7-R2-E9
# B9: D7 (Fab)
# light: B8 light with G94Y, G95Y, P96L, F97I
# heavy: EVQLVESGGGLVQPGGSLRLSCAASGFNISYYSMHWVRQAPGKGLEWVAYIYPYSSYTYYADSVKGRFTISADTSKNTAYLQMNSLRAEDTAVYYCARYHGFYGMDYWGQGTLVTVSSASTKGPSVFPLAPSSKSTSGGTAALGCLVKDYFPEPVTVSWNSGALTSGVHTFPAVLQSSGLYSLSSVVTVPSSSLGTQTYICNVNHKPSNTKVDKKVEPKSC
# notes: selection round 2; also called Fzd7-R2-D7
# B10: G1 (Fab)
# light: B8 light with S91W, Y92G, V93Y, G95A, P96L, F97I
# heavy: EVQLVESGGGLVQPGGSLRLSCAASGFNISYSSIHWVRQAPGKGLEWVASIYPSPGYTSYADSVKGRFTISADTSKNTAYLQMNSLRAEDTAVYYCARHGWYGLDYWGQGTLVTVSSASTKGPSVFPLAPSSKSTSGGTAALGCLVKDYFPEPVTVSWNSGALTSGVHTFPAVLQSSGLYSLSSVVTVPSSSLGTQTYICNVNHKPSNTKVDKKVEPKSC
# notes: selection round 2; same four CDRs as Fzd7-R2-G12 (f18); also called Fzd7-R2-G1
# Target: T1, recombinant Frizzled receptor 7 (FZD7) cysteine-rich domain (CRD) fused to the Fc region of human IgG (human, UniProt O75084 33-185)
# Assay: ELISA, 10ug/ml (200nM) Fab
# Procedure: (§1) FIG. 2B is a table depicting the binding of purified Fabs to purified FZD7-Fc measured by ELISA. Fabs purified from 25 ml bacterial cultures were assayed for binding to FZD7-Fc fusion protein (R&D systems) and Fc protein. ELISA plates (384 well) were coated with 2 ug/ml of protein in PBS overnight at four degrees. Wells were blocked with 0.5% BSA/PBS for 1 hour at room temperature, washed three times with 0.05% Tween20/PBS (wash buffer), and then primary dilutions of Fabs in 0.5% BSA/0.05% Tween20/PBS (dilution buffer) were added at indicated concentrations. Fabs were incubated for 1 hour at room temperature, wells were washed six times, and anti-FLAG-HRP (Sigma) was added at 1:5000 in dilution buffer. Secondary antibody was incubated for 45 minutes at room temperature, and wells were washed six times and developed with TMB substrate with an acid stop. The absorbance at 450 nm was read. n.t.=not tested.
row,OD 450,Binder
1,3.11,B1
2,2.05,B2
3,3.16,B3
4,3.22,B4
5,2.99,B5
6,3.17,B6
7,3.17,B7
8,3.22,B8
9,3.18,B9
10,3.18,B10

# Target: T2, Fc control protein
# T2 construct: also called Fc protein; control Fc protein
# Assay: ELISA, 10ug/ml (200nM) Fab
# Procedure: as §1
row,OD 450,Binder
1,0.06,B1
2,0.06,B2
3,0.06,B3
4,0.06,B4
5,0.06,B5
6,0.06,B6
7,0.07,B7
8,0.07,B8
9,0.07,B9
10,0.05,B10

# Target: T3, FZD7 receptor expressed on cells (full-length) (UniProt O75084 33-574, limits assumed)
# T3 construct: whole, on cells; MDA MB 231 cells may carry other Frizzled receptors too; also called full-length FZD7 receptor; endogenous receptor on MDA MB 231 cells
# Assay: flow cytometry, 200 nM Fab, FZD7 over-expression line (MDA MB 231)
# Procedure: (§2) FIG. 3 is a table depicting the binding of the purified Fabs to cells expressing FZD7 (flow cytometry). Small scale Fabs were assayed for binding to full-length FZD7 receptor to an over-expression line in MDA MB 231 cells. In parallel, Fabs were assayed for binding to endogenous receptor expressed on the MDA MB 231 cells. Cells were harvested using an EDTA solution, blocked in 2% FBS/PBS (stain buffer), and stained with 200 nM Fab for 30 min on ice. Cells were washed two times with stain buffer and incubated with anti-F(ab′)₂-APC secondary antibody (Jackson Immuno) at 1:1000 for 15 minutes on ice. All antibodies were diluted in stain buffer. Cells were washed three times with stain buffer and then fixed with 1% paraformaldehye for analysis by flow cytometry. […] The percent of the cell population within the positive gates is indicated.
row,% population within the positive gate [%],Binder
1,59.9,B1
2,50.5,B2
3,88.3,B3
4,94.2,B4
5,88.4,B5
6,86.2,B6
7,85.4,B7
8,90.7,B8
9,75.7,B9
10,83.4,B10

# Target: T1, recombinant Frizzled receptor 7 (FZD7) …
# Assay: ELISA, 1ug/ml (20nM) Fab
# Procedure: as §1
row,OD 450,Binder
1,1.05,B1
2,0.37,B2
3,3.11,B3
4,3.24,B4
5,2.82,B5
6,3.17,B6
7,3.15,B7
8,3.15,B8
9,3.22,B9
10,3.17,B10

# Target: T2, Fc control protein
# Assay: ELISA, 1ug/ml (20nM) Fab
# Procedure: as §1
row,OD 450,Binder
1,0.08,B1
2,0.07,B2
3,0.06,B3
4,0.05,B4
5,0.06,B5
6,0.07,B6
7,0.05,B7
8,0.05,B8
9,0.07,B9
10,0.05,B10

# Target: T3, FZD7 receptor expressed on cells …
# Assay: flow cytometry, 200 nM Fab, MDA MB 231
# Procedure: as §2
row,% population within the positive gate [%],Binder
1,1.4,B1
2,0.9,B2
3,50.3,B3
4,99.2,B4
5,35,B5
6,6.3,B6
7,5.1,B7
8,99.4,B8
9,1.7,B9
10,28.6,B10
